The values that follow come from patent publication US20210040232A1.

Test [1] concerns the target human CTLA-4 (amino acids M1-N223) on stably transfected VI-fibroblast cells (human) (UniProt P16410). Description: ECL cell binding, VI-fibroblast/hCTLA-4 cells.
The target in test [2] is mf CTLA-4 extracellular domain (aa 1-161) fused to the trans-membrane and cytoplasmic domain of hCD300a (aa 181-299), on Jurkat/NFAT-Luc cells (Macaca fascicularis; human) (UniProt G7PL88). Description: ECL cell binding, Jurkat/NFAT-Luc/mfCTLA-4-hCD300a cells.
mf CTLA-4 extracellular domain (aa 1-161) fused to the trans-membrane and cytoplasmic domain of hCD300a (aa 181-299), on Jurkat/NFAT-Luc cells (Macaca fascicularis; human), sequence (Q9UGN4 other isoform, or with tags, fused parts or gaps, form in doubt): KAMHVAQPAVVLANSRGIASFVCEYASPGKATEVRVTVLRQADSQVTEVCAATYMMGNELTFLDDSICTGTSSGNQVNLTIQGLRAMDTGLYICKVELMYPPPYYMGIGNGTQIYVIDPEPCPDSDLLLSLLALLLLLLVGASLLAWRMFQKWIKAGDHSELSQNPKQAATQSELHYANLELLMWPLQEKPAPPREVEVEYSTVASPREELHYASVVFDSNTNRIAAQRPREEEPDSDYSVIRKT
For test [3] the target is unchanged. Description: cell-based or functional assay.

Broadly, the EC50 is the concentration at which the effect is half-maximal. A low value points to an effect from little substance.

human CTLA-4 (amino acids M1-N223) on stably transfected VI-fibroblast cells (human), sequence (P16410 36-223 limits assumed): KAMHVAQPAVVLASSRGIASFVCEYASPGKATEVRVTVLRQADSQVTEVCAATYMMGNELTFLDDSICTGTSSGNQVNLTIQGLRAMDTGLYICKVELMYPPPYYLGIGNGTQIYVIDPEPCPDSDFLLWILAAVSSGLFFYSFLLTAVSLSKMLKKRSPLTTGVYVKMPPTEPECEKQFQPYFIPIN

B1: H1H19264P (antibody, human IgG1, V domains shown)
VH: QVQLVQSGAEVKKPGASVKVSCKASDYTFTSYGISWVRQAPGQGLEWMGWISVYNGNINYAQKFKGRVTMTTDTSTSTAYMELRSLRSDDMAVYYCARVTQFGMDVWGQGTTVTVSS
VL: DIQMTQSPSSLSASVGDRVTITCRASQSISSNLNWYQQNPGKAPKLLIYTTSSLQGGVPSRFSGSGSGTDFTLTISSLQPEDFATYYCQQSFRTPFTFGPGTKVDIK
Regarding B1, the ratio of RLU signal to parental VI-fibroblast at 0.4 nM Ab in test [1] stood at 1.

B2: H1H19273P (antibody, human IgG1, V domains shown)
VH: QITLKESGPTLVKPTQTLTLTCTFSGFSLSTSGVGVGWIRQSPGRALEWLALIYWNDHERYSPSLKSRLTITKDTSKNLVVLAMANMDPVDTATYFCAHRNIEYRRSYFFDYWGQGTLVTVSS
VL: DIQMTQSPSSVSASVRDRVTVTCRASQDINNWLAWYQQKPGKAPKLLIYAASSLQSGVPSRFSGSGSGTDFTLTISSLQPEDFATYYCQQANTFPFTFGPGTKVDIK
The molecule B2 registered an EC50 in test [2] of 0.22 nM. Besides, in test [3], the EC50, T-cell/APC IL-2 release assay, APC HEK293/hCD20/hCD86 is 11.4 nM; the EC50, T-cell/APC NFAT-luciferase assay, +Fc Block turned out to be 1.83 nM; the EC50, T-cell/APC NFAT-luciferase assay, -Fc Block came to 3.05 nM; the Fold induction of IL-2 at 100 nM, APC HEK293/hCD20/hCD86 was found to be 6.5 fold.

B3: H1H19313P (antibody, human IgG1, V domains shown)
VH: QITLKESGPTLVKPTQTLTLTCTFSGFSLSTSGVGVGWIRQPPGVALEWLALIYWNDDKRFSPSLKSRLTITKDTSKNQVVLTMTNMDPVDTATYYCAHRRLGLYYFDYWGQGTLVTVSS
VL: DIQLTQSPSFLSASVGDRVTITCWASQGISSYLAWYQQKPGKAPKLLIYAASTLQSGVPSRFSGSGSGTEFTLTISSLQPEDFATYYCQQVHIYPFTFGPGTKVDIK
Molecule B3 returned an EC50 in test [2] of 0.14 nM. Besides, in test [3], the EC50, T-cell/APC IL-2 release assay, APC HEK293/hCD20/hCD86 came out at 21.9 nM; the EC50, T-cell/APC NFAT-luciferase assay, +Fc Block came out at 1.84 nM; the EC50, T-cell/APC NFAT-luciferase assay, -Fc Block stood at 1.34 nM; the Fold induction of IL-2 at 100 nM, APC HEK293/hCD20/hCD86 is 6.1 fold.

B4: H1H19303P (antibody, human IgG1, kappa, V domains shown)
VH: EVQLVESGGGLVQPGGSLRLSCAASGFTFSNYEMSWVRQAPGKGLEWVSSIRTSGTTKYYADSMKGRFTISRDNAKNSLYLQMNSLRAEDTAVYYCAGGGTFLHYWGQGTLVTVSS
VL: DIQMTQSPSSVSASVGDRVTITCRASQGIASYLAWYQQKPGKAPKLLIYAASSLQTGVPSRFSGSGYGTDFTLTISSLQPEDFATYYCQQAKSFPMYTFGQGTKLEIKR
B4 returned an EC50 in test [2] of 0.11 nM. In test [3], this molecule registered an EC50, T-cell/APC IL-2 release assay, APC HEK293/hCD20/hCD86 of 40.9 nM; an EC50, T-cell/APC NFAT-luciferase assay, +Fc Block of 1.77 nM; an EC50, T-cell/APC NFAT-luciferase assay, -Fc Block of 1.28 nM; a Fold induction of IL-2 at 100 nM, APC HEK293/hCD20/hCD86 of 4.4 fold.
